This data set deals with GST-OGG1F319A (Homo sapiens, UniProt O15527 1-345, F319A). Briefly: EMSA. A general note: In EMSA bound probe runs differently from free probe, usually more slowly.
Sequence of GST-OGG1F319A (O15527 whole entry F319A): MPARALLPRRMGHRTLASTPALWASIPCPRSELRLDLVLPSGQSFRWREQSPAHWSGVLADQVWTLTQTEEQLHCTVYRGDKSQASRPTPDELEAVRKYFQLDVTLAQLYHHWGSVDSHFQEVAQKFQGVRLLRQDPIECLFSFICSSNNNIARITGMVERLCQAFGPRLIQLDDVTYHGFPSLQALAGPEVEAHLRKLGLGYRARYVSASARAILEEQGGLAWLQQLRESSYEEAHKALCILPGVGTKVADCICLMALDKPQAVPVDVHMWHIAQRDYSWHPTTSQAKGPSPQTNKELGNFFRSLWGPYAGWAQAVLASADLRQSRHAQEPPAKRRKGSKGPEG

B1: 8-oxoGua duplex probe (Table S1) (dsDNA)
DNA 1: AGAGAAGAAGAAGAAGAAGAGATGGGTTATTCGAACTAGC
DNA 2: GCTAGTTCGAATAACCCATCTCTTCTTCTTCTTCTTCTCT
modifications: 8-oxoguanine at position 19 of strand 1 (printed X, written as G)
Consider B1, for which the binding result is on record as “no binding”.

These data come from paper PMC12088383.
